Test results: publication PMC1175818, “A Conserved Mechanism for Sulfonucleotide Reduction” (PLoS Biology, 2005)

B1: P. aeruginosa APS reductase (enzyme, UniProt O05927 1-267, looked up)
chain: MLPFATIPATERNSAAQHQDPSPMSQPFDLPALASSLADKSPQDILKAAFEHFGDELWISFSGAEDVVLVDMAWKLNRNVKVFSLDTGRLHPETYRFIDQVREHYGIAIDVLSPDPRLLEPLVKEKGLFSFYRDGHGECCGIRKIEPLKRKLAGVRAWATGQRRDQSPGTRSQVAVLEIDGAFSTPEKPLYKFNPLSSMTSEEVWGYIRMLELPYNSLHERGYISIGCEPCTRPVLPNQHEREGRWWWEEATHKECGLHAGNLISKA
notes: APS reductase of P. aeruginosa, gene amplified from P. aeruginosa genomic DNA ATCC 47085D; Cloned into pET24b or pET14b; source: E. coli BL21(DE3), purified (HiTrap Chelating, Superdex 200 gel filtration)

How the values were obtained:
[1] = target: E. coli PAPS reductase (E. coli); assay: SEC; Superdex 200 gel filtration; 50 mM Tris-HCl (pH 8.0), 10% glycerol, 5 mM DTT, ionic strength adjusted to 150 mM with NaCl; column calibrated with protein standards; no change in retention volume when DTT was omitted
[2] = target: the molecule itself; assay: as above

| Molecule | stoichiometry N [1] | stoichiometry N [2] |
| --- | --- | --- |
| E. coli PAPS reductase (enzyme) | 2 |  |
| B1 |  | 4 |
